Experimental findings from US20250312376A1 (FLAGSHIP PIONEERING INNOVATIONS VI, published 2025) are described below.

In the test the target is T1, BCMA on BCMA-positive tumor cell lines (H929, RPMI-8226) (UniProt Q02223 1-184, limits assumed).
T1 sequence (looked up): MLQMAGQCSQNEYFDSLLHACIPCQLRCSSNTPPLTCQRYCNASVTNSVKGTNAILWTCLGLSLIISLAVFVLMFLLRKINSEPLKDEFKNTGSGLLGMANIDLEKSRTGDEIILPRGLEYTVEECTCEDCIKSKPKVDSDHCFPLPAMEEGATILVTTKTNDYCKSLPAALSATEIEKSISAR
The experiment in a line: cell-based or functional assay.

B1: BCMA-CAR fusion polypeptide (receptor)
chain: QVQLVQSGAEVKKPGASVKVSCKASGYSFPDYYINWVRQAPGQGLEWMGWIYFASGNSEYNQKFTGRVTMTRDTSSSTAYMELSSLRSEDTAVYFCASLYDYDWYFDVWGQGTMVTVSSGGGGSGGGGSGGGGSDIVMTQTPLSLSVTPGEPASISCKSSQSLVHSNGNTYLHWYLQKPGQSPQLLIYKVSNRFSGVPDRFSGSGSGADFTLKISRVEAEDVGVYYCAETSHVPWTFGQGTKLEIKTTTPAPRPPTPAPTIASQPLSLRPEACRPAAGGAVHTRGLDFACDIYIWAPLAGTCGVLLLSLVITLYCRSKRSRLLHSDYMNMTPRRPGPTRKHYQPYAPPRDFAAYRSRVKFSRSADAPAYQQGQNQLYNELNLGRREEYDVLDKRRGRDPEMGGKPRRKNPQEGLYNELQKDKMAEAYSEIGMKGERRRGKGHDGLYQGLSTATKDTYDALHMQALPPR
For the molecule B1, the “% killing at a 0.625 ratio of effector T cells to tumor cells (one donor)” value is > 50%.
